# Data published in patent publication US20230414709A1 (TRUSTEES OF COLUMBIA UNIVERSITY IN THE CITY OF NEW YORK, published 2023).
# Changes are numbered by the printed parent chain.
# B1: K3 NGAL mutant protein (ligand)
# chain: QDSTSDLIPAPPLSSVPLQQNFQDNQFQGKWYVVGLAGNAILREDEDPQKMYATIYELKEDKSYNVTSVLFRDDGCDYWIRTFVPGCQPGEFTLGNIQSYPGLTSYLVRVVSTNYNQFAMVFFKKVSQNQEYFKITLYGRTKELTSELQENFIRFSKSLGLPENNIVFPVPIDQCIDG
# notes: Mutant of human NGAL, made in E. coli as for the wild type (GST fusion vector); Runs as monomer and dimer on Western blot; also called K6 (i.e, K3); Mut1
# B2: wild-type human NGAL (Neutrophil Gelatinase-Associated Lipocalin) (ligand)
# chain: B1 chain with S15K, E46K, D73K, D74K, G75K, Q98K, F118H, Q130R, Q149K, N165H
# B3: K3Cys protein (ligand)
# chain: B1 chain with C87S
# notes: only monomers seen; also called K3Cys NGAL; Mut2
# B4: NGAL mutant A1 (ligand)
# chain: B1 chain with E46K, D73K, D74K, G75K, Q98K, F118H, Q130R, Q149K, N165H
# B5: NGAL mutant C5 (ligand)
# chain: QDSTSDLIPAPPLSKVPLQQNFQDNQFQGKWYVVGLAGNAILREDKDPQKMYATIYELKEDKSYNVTSVLFQKKKCDYWIRTFVPGCQPGEFTLGNIKSYPGLTSYLVRVVSTNYNQHAMVFFKKVSQNREYFKITLYGRTKELTSELKENFIRFSQSLGLPENHIVFPVPIDQCIDG
# B6: NGAL mutant D1 (ligand)
# chain: B5 chain with Q72R, K73D, K74D, K75G, Q157K
# B7: NGAL mutant D2 (ligand)
# chain: B5 chain with K62G, Q72R, Q157K
# B8: NGAL mutant F1 (ligand)
# chain: B5 chain with K15S, K46E, K59Q, Q72R, Q157K
# B9: NGAL mutant F2 (ligand)
# chain: B5 chain with K46E, K59Q, Q72R, Q157K
# B10: NGAL mutant F4 (ligand)
# chain: B5 chain with K15S, K46E, Q72R, K149Q, Q157K
# B11: NGAL mutant F5 (ligand)
# chain: B5 chain with K15S, K46E, Q72R, K149Q, Q157K, H165N
# B12: NGAL mutant G1 (ligand)
# chain: B5 chain with K15S, R43Q, Q72R, K149Q, Q157K
# B13: NGAL mutant G3 (ligand)
# chain: B5 chain with Q72R
# B14: NGAL mutant H1 (ligand)
# chain: B5 chain with Q72R, Q157K, H165N
# B15: NGAL mutant A2 (ligand)
# chain: B5 chain with K15S, Q72R, R140Q, K142Q, Q157K
# B16: NGAL mutant H2 (ligand)
# chain: B1 chain with E46K, D73K, D74K, G75K
# B17: NGAL mutant H3 (ligand)
# chain: B5 chain with Q72R, H118F, K149Q, Q157K, H165N
# B18: NGAL mutant H5 (ligand)
# chain: B5 chain with K15S, Q72R, K98Q, Q157K, H165N
# B19: NGAL mutant I1 (ligand)
# chain: B1 chain with E46K, Q98K, F118H, Q149K, N165H
# B20: NGAL mutant I3 (ligand)
# chain: B5 chain with K62G, Q72R, K73D, K74D, K75G, K98Q, Q157K
# B21: NGAL mutant I5 (ligand)
# chain: B1 chain with E46K, K62G, Q98K, F118H, Q149K, N165H
# B22: NGAL mutant K1 (ligand)
# chain: B1 chain with K59Q, D73K, D74K, G75K
# B23: NGAL mutant K2 (ligand)
# chain: B1 chain with E46K
# B24: NGAL mutant K5 (ligand)
# chain: B1 chain with D73K, D74K, G75K
# B25: NGAL mutant A3 (ligand)
# chain: B5 chain with R43Q, Q72R, Q157K
# B26: NGAL mutant B1 (ligand)
# chain: B5 chain with Q72R, K98Q, H118F, Q157K, H165N
# B27: NGAL mutant B2 (ligand)
# chain: B5 chain with K15S, K46E, Q72R, H118F, Q157K, H165N
# B28: NGAL mutant B3 (ligand)
# chain: B5 chain with K46E, Q72R, Q157K, H165N
# B29: NGAL mutant B4 (ligand)
# chain: B5 chain with K46E, Q72R, K98Q, Q157K
# B30: NGAL mutant C1 (ligand)
# chain: B5 chain with K50T, R130Q, K149Q
# B31: NGAL mutant C3 (ligand)
# chain: B5 chain with K15S, K50T, K149Q
# Target: T1, mouse megalin (mouse, UniProt A2ARV4 26-4660)
# Experiment: cell-based or functional assay
# T1 sequence (A2ARV4 26-4660 limits assumed): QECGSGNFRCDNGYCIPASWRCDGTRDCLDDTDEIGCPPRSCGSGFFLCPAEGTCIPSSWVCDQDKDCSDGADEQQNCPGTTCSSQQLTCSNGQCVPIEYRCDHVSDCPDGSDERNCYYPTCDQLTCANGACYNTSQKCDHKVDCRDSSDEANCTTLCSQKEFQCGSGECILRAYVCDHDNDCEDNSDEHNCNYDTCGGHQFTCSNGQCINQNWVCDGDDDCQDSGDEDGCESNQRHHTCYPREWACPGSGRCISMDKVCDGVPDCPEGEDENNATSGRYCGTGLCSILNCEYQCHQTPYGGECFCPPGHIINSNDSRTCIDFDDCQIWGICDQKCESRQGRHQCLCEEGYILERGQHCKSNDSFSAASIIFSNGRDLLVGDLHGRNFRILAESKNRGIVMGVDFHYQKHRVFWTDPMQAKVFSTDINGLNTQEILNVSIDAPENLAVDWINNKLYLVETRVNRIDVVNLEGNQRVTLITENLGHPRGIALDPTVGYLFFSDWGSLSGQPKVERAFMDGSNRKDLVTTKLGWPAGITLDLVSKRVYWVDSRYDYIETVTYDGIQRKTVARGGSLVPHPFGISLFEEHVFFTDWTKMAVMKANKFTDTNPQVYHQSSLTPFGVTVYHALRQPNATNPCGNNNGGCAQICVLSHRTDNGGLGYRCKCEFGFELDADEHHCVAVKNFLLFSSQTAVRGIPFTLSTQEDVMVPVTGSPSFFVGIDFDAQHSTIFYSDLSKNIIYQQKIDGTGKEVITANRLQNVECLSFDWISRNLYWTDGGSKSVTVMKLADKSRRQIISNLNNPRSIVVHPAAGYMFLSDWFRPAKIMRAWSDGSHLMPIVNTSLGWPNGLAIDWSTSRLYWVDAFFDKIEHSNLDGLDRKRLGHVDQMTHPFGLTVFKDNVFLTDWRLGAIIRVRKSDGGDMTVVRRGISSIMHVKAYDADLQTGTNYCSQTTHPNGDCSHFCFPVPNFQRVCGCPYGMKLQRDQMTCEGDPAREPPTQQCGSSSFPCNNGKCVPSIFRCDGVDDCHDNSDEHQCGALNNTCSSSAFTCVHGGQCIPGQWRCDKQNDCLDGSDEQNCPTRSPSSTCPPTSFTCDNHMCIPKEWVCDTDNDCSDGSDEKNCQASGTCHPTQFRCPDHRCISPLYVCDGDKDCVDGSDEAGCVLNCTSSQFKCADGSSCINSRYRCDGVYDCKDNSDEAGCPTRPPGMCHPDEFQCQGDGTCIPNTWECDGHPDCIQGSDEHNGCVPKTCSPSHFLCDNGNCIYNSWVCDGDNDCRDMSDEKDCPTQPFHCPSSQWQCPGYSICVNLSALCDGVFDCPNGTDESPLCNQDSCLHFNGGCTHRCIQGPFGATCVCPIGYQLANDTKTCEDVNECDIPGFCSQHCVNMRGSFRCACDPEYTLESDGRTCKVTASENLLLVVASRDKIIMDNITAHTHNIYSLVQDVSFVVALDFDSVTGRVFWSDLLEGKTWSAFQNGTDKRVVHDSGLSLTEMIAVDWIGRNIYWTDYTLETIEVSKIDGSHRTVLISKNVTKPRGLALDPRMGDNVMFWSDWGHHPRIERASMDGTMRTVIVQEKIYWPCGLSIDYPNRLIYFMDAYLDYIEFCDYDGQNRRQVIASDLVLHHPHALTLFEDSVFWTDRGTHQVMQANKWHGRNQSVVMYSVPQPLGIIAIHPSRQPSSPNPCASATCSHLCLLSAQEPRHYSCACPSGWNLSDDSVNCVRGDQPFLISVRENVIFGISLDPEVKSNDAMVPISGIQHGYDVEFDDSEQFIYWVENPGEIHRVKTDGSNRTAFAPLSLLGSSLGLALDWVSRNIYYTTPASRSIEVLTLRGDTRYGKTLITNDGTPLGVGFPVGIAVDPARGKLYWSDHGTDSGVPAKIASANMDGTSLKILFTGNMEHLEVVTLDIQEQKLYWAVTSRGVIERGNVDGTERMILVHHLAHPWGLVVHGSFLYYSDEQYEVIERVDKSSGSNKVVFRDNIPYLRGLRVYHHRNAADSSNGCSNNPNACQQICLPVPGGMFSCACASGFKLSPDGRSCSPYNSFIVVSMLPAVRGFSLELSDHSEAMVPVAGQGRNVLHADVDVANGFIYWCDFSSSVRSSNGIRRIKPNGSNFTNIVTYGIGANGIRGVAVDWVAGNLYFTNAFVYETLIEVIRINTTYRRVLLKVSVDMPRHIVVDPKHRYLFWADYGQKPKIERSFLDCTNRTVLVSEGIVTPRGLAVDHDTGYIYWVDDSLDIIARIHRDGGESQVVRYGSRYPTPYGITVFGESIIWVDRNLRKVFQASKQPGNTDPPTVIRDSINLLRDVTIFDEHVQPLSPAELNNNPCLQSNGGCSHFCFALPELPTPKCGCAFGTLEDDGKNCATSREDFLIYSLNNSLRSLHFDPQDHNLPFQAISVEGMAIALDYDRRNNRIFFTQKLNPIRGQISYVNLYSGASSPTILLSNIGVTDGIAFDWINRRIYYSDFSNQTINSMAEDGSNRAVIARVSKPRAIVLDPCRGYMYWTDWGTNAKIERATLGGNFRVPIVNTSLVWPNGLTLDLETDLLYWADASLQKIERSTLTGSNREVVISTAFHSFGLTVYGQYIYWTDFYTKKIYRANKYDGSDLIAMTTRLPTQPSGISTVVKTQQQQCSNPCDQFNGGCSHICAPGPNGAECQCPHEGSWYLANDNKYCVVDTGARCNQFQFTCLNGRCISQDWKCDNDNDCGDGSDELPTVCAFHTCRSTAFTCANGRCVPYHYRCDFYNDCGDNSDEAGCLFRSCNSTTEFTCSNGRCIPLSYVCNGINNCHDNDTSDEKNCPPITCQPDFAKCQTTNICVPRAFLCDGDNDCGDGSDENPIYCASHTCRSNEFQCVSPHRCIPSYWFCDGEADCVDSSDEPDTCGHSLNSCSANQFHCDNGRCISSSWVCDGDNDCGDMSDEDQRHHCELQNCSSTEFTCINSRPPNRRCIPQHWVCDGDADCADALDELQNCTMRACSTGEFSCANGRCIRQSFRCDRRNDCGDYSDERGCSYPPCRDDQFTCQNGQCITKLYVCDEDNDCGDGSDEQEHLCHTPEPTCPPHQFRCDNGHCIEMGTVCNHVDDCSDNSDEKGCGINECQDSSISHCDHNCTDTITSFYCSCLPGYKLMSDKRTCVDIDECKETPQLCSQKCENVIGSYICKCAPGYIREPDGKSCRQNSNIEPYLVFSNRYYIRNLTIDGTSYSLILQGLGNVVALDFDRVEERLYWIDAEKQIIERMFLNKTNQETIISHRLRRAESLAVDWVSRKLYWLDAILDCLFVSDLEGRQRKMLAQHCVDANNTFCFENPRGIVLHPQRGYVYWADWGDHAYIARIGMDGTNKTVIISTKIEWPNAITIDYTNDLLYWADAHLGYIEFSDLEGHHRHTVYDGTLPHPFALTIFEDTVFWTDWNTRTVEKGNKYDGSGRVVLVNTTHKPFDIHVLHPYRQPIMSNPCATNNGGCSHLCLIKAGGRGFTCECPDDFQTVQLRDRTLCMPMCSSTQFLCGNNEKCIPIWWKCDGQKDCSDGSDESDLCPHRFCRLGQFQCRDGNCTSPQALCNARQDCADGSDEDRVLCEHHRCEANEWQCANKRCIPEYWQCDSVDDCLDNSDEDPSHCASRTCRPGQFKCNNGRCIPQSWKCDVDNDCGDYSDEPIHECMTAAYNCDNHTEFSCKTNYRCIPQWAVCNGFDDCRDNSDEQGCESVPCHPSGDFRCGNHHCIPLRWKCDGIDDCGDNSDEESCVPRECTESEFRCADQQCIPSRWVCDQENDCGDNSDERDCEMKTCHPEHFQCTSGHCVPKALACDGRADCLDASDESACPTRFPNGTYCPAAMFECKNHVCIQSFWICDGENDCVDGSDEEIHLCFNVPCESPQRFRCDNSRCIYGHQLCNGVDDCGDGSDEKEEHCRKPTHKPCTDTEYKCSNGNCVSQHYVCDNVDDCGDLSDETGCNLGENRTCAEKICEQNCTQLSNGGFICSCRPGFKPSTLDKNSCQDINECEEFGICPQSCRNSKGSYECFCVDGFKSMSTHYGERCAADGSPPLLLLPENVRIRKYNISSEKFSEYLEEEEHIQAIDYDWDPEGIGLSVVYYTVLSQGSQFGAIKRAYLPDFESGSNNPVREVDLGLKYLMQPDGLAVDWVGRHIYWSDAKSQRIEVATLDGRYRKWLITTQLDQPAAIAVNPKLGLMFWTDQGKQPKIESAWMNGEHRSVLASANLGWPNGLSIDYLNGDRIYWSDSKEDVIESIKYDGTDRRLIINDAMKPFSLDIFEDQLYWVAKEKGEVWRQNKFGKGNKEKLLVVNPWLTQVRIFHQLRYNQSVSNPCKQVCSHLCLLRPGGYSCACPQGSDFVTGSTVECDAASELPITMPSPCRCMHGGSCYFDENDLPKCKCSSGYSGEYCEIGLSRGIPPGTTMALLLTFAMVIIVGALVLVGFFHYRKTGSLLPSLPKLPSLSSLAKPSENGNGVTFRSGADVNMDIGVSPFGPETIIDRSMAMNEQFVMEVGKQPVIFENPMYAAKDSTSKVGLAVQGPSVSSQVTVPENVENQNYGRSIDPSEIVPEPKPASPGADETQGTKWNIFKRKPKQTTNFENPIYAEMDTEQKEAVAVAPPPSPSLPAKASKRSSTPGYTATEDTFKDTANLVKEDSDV
row,Binder,percent of injected Ngal:Ent:59FeIII complex delivered to mouse urine in 3 hrs [%]
1,B1,23
2,B2,< 0.1
3,B3,~100

# Target: T1, mouse megalin
# Experiment: cell-based or functional assay
# Remark: another data set of the same source
row,Binder,"Accumulation 3 hours after i.p. injection (%): Urine (Ngal-enterochelin-55Fe3+ complex, C57BL/6 mice) [%]"
1,B4,0.55
2,B5,0.26
3,B6,0.1
4,B7,0.11
5,B8,0.51
6,B9,0.11
7,B10,1.65
8,B11,1.23
9,B12,0.28
10,B13,0.17
11,B14,0.37
12,B15,0.18
13,B16,0.27
14,B17,0.3
15,B18,0.24
16,B19,6
17,B20,6.9
18,B21,0.05
19,B22,1.9
20,B23,9.6
21,B1,19.6
22,B24,2.9
23,B25,0.23
24,B26,0.22
25,B27,1.22
26,B28,0.3
27,B29,0.13
28,B30,0.72
29,B31,0.44

# Target: the molecule itself
# Experiment: Western blot of purified NGAL and of NGAL recovered from mouse urine, homodimer band against monomer band
# Method: FIGS. 22A-22B. FIG. 22A. Left: Western blot of different species of NGAL. Wild type NGAL forms protein dimers (46-50 KDa) from monomers (at 23-25 KDa). Similarly the Mutant1 (K3 NGAL) forms dimers from monomers. However, Mutant2 (K3Cys) only forms monomers. Right. NGAL proteins (Wt, Mut1 and Mut2) were injected into mice, and the NGAL proteins in the urine (uWt=urinary wild-type protein; uMut1=urinary Mut1 K3 and uMut2=urinary Mut2 K3Cys) were collected at two different time points, and analyzed by Western Blot. For each protein (uWt, uMut1 and uMut2), the 1st lane on the Western blot represents proteins that were collected in the urine 20 min. after the injection and the 2nd lane on the Western blot represents proteins that were collected from the mouse at 180 min. after the injection. Very low levels of uWt appear in urine, whereas higher levels of both uMut1 and uMut2 appear in urine. uMut1 forms both monomers and dimers, whereas uMut2 only forms monomers. FIG. 22B. Mice were injected with NGAL proteins (Wt, Mut1 and Mut2) that were labeled with the dye Alexa Fluor™ 568 (Molecular Probes-Invitrogen), which covalently attaches to the proteins. […]
row,Binder,binding result
1,B1,binds
2,B3,no binding
